Patent US10328100B2 (Amorphical Ltd., priority 2007, dated 2019)
Where “and” joins values, the source holds several entries; their conditions need not be identical. Identical values can stand only once. Entries after “also recorded” stand apart in the source; their conditions may differ.

Legend:
GAP10 transcripts = test: in vivo silencing of GAP10 transcripts during premolt; set-up: species or system C. quadricarinatus
Experimental: In order to examine the effect of in vivo silencing of GAP10 transcripts during premolt, intermolt males (MMI=0), each weighing 5-10 g were divided to four groups. Ten animals were injected daily with both ecdysone, and dsRNA of GAP 10; eight were injected with ecdysone; six were injected with both ecdysone and dsRNA of CqVg; and four were injected with ecdysone carrier only, i.e., 10% ethanol in Diethyl pyrocarbonate-treated doubly distilled water. Injections were given into the sinus of the first abdominal segment. For each individual crayfish the experiment was terminated at MMI=0.1, at which time the animal was anesthetized and its gastroliths were dissected out. Premolt duration was defined as the number of days until termination. […] Another group was injected with ecdysone and CqVg dsRNA (a hepatopancreatic-specific gene found mostly in reproductive females) and served as a control for sequence-specific silencing.
For analysis of the gastrolith surface roughness, optical phase interference microscopy (OPIM) analysis was used, providing topographic images of representative surface samples from each group (FIG. 37B).

C. quadricarinatus = settings: cited from earlier work
GAP65 transcript = test: GAP65 silencing by in vivo injections of GAP65 dsRNA (RNAi) to intermolt crayfish; set-up: species or system Cherax quadricarinatus
Experimental: Relative GAP65 transcript levels in the gastrolith epithelial disc following silencing using GAP65 dsRNA were measured using realtime RT-PCR and presented in FIG. 4. GAP65 levels were evaluated in crayfish injected with ecdysone and GAP65 dsRNA, ecdysone and dsRNA carrier, ecdysone and C. quadricarinatus vitellogenin (CqVg) dsRNA, and a control injected with both carriers. CqVg an hepatopancreatic specific gene found mostly in reproductive females, served as a control for sequence specific silencing. […] In the crayfish injected with ecdysone and CqVg dsRNA, GAP65 transcript levels were similar to the levels detected in the ecdysone and dsRNA carrier injected group. In the control carriers injected crayfish GAP65 transcript levels were higher than the levels found in the ecdysone and GAP65 dsRNA injected crayfish but lower than the levels detected in both the ecdysone and dsRNA injected, and the ecdysone CqVg dsRNA injected crayfish.
In order to test the role of GAP65 in gastrolith formation, an RNAi (RNA interference) technique using in vivo injections of GAP65 dsRNA to intermolt crayfish was applied. The initiation of gastrolith formation was achieved by injection of ecdysone. In FIG. 5 gastrolith of crayfish injected with either ecdysone+GAP65 dsRNA, ecdysone+dsRNA carrier, or with carriers of both ecdysone and dsRNA can be seen. FIG. 5A is a lateral view of a representative gastrolith dissected from each treatment group. […] In the control carriers injected the gastrolith appeared undeveloped or in an initial growth stage. […] The control carrier gastrolith was too small to be detected by the X-ray imaging.
Scanning electron microscope (SEM) images of gastroliths dissected from crayfish injected with GAP65 dsRNA and ecdysone, and from crayfish injected only with ecdysone and dsRNA carrier, are presented in FIG. 6. FIG. 6A-B depict images of a cross section through the central part of the gastrolith. […] The dense mineral layered structure observed in the gastrolith of ecdysone and carrier injected is replaced with a loosely packed columnar mineralization structure, which resembles hollow straws, in the gastrolith of ecdysone and GAP65 dsRNA injected crayfish.

[1] = in vitro calcium carbonate precipitation assay testing the stabilization of ACC; format: physicochemical; settings: for form of calcium carbonate precipitated in the presence of the additive: in vitro precipitation from calcium salt and carbonate
Description: Analysis of the product may comprise testing the resultant CaCO3 by various methods (as XRD, electron diffraction, SEM) to verify its amorphous nature. […] The phosphate peak at 950 cm^−1, is proportional to the phosphate content in the sample. Yet, the ratio between 1080 to 950 cm^−1 is proportional, but not directly indicative of the CO3^2−/[…] ratio.
FIG. 7 presents precipitation results of calcium carbonate in the presence of GAP65 and in the presence of other protein (trypsin). SEM images in FIG. 7A indicate the distinct polymorph of calcium carbonate in each treatment.
(§1) 100 μl of 1M CaCl2 was added to 10 ml double distilled water (final concentration: 10 mM). 80 μl from the protein extraction solution (1.2 μg/μl) were added (final concentration ˜10 μg/ml), 100 μl of 1M Na2CO3 (final concentration: 10 mM) was added following an intensive shaking. The vial was centrifuged for 5 min at 4000 rpm, the precipitate was smeared over a glass slide and instantly dried with air flow. […] The observations were confirmed by Raman spectroscopy.
100 μl of 1M CaCl2 were added to 10 ml double-distilled water (DDW), attaining the final concentration of […]. 200 μl of P-serine (P-Ser) solution (100 mM) were added to the solution, attaining 2 mM of P-Ser. 100 μl of 1M Na2CO3 (final concentration: 10 mM) were added following an intensive shaking. The vial was centrifuged for 5 min at 4000 rpm at room temperature. The upper solution was removed and the precipitation was smeared over a glass slide and instantly dried by air flow.

[2] = calcium binding on nitrocellulose membrane after SDS-PAGE; settings: gastrolith protein fraction transferred to nitrocellulose membrane
Experimental: FIGS. 33A-B. relate to the identification of GAP10 and characterization of its phosphorylation and calcium-binding properties; FIG. 33A, left: SDS-PAGE stained with Coomassie blue; middle: Staining of the same gel for phosphoproteins; right: transfer of the same fraction to a nitrocellulose membrane and incubation with […]. Spots identified as GAP10 by LC-MS are circled. Abbreviations: PC (positive control).
(§2) Proteins that were both phosphorylated and calcium-binding were prepared for LC-MS. Two of them, migrating at apparent molecular masses of ˜9 and ˜11 kDa (circled), were identified as GAP10 (FIG. 33B), and their pIs were calculated as 5 and 5.5, respectively. Since GAP10 has a mildly acidic pI, it is negatively charged at the pH of the gastrolith pouch, which is approximately 8.7.

[3] = isoelectric focusing then SDS-PAGE of gastrolith protein fraction; format: physicochemical; settings: two spots of ~9 and ~11 kDa identified as GAP10, respectively
Experimental: as §2

[4] = stability of ACC held at room temperature, tested by Raman spectroscopy; format: physicochemical
Experimental: The precipitated calcium carbonate was checked over long periods for the amorphous/crystalline state.
as §1

C[C@H]([C@H](O)CCC(C)(C)O)[C@H]1CC[C@@]2(O)C3=CC(=O)[C@@H]4C[C@@H](O)[C@@H](O)C[C@]4(C)[C@H]3CC[C@]12C [ecdysone]
Swedish height (SH) of gastrolith surface (GAP10 transcripts; OPIM topographic images): 4.4±0.5 μm | average premolt duration (number of days until reaching MMI=0.1) (GAP10 transcripts; repeated daily injections to intermolt males, dsRNA given together with ecdysone): 10.1 days | gastrolith surface appearance (GAP10 transcripts; top view of dissected gastroliths): fairly smooth | typical induced premolt duration until ecdysis (C. quadricarinatus; known for ecdysone administration): 10 to 14 days | peak observed molt mineralization index (MMI) (C. quadricarinatus; reached 1-2 days before the molt event): 0.125-0.145 | gastrolith spherule size (GAP65 transcript; SEM x15000): 40-60 nm | gastrolith structure by SEM (GAP65 transcript; cross section through central part of gastrolith): normal gastrolith appearance | gastrolith morphology (GAP65 transcript; dissected gastrolith, lateral view, gastrolith formation initiated by ecdysone): normal with no deformities | gastrolith mineral density by X-ray imaging (GAP65 transcript; dorsal X-ray view prior to dissection): normal with no effects on mineral densities

B1: trypsin: Other (inert) protein used in equivalent amount as control in the precipitation assay (protein, UniProt P00760 24-246, looked up)
Serine protease 1: IVGGYTCGANTVPYQVSLNSGYHFCGGSLINSQWVVSAAHCYKSGIQVRLGEDNINVVEGNEQFISASKSIVHPSYNSNTLNNDIMLIKLKSAASLNSRVASISLPTSCASAGTQCLISGWGNTKSSGTSYPDVLKCLKAPILSDSSCKSAYPGQITSNMFCAGYLEGGKDSCQGDSGGPVVCSGKLQGIVSWGSGCAQKNKPGVYTKVCNYVSWIKQTIASN
form of calcium carbonate precipitated in the presence of the additive ([1]; SEM): rapid crystallization | size of calcium carbonate crystals formed ([1]; same conditions, control protein, SEM): 10 μm

B2: GAP10: Gastrolith protein of Cherax quadricarinatus, calculated 10 kDa, SEQ ID NO. 24 (fragment SEQ ID NO. 25) (protein, listed as Cherax quadricarinatus)
chain: MKIFILLVVIGVVSAQLGAGQVGGAAPAQGAGGAAGVGGPGAAPVNPYGPKVYGSGLNNPFAFPHNTWEVSRAAAVAATNPNLYVRVESDGGWEFTNRFGEKVDVYNSFGQELD
calcium binding [2]: calcium-binding ability | pI [3]: 5 and 5.5

B3: GAP65: Negatively charged glycoprotein of about 65 kDa from Cherax quadricarinatus gastrolith, SEQ ID NO. 1; used as enriched DEAE fraction 17 (protein, listed as Cherax quadricarinatus)
chain: MIRRVTTPLLALLLAGWVVAQTTDMDPEQYCARRDDEYFRKDFGDPAEFASDYRANCGVYYRCVPAPAGKRSISASQCQSELFFDVQQQICERKSKVTNCEQIDKEHPPQPFWPLREGEESQCKSGEIMCGSGECLPQHRFCDENSDCADGSDENICTPDKDPNRADVCEPRTCLWSQGCFCSVDGTRIPGDLTVDQTPQMITITFTGAINERNFRIFQDVFKDTVKHKGNDCTPKGTFFISHGFSNYSAIQELNRVGHEIAVSSITNNDNPDYWSKLSALDYEAEMDGARLIIEKFANITANEVLGIRVPKQRVGGNRQFRMMVDWGFLYDSSISAPMGRLPLWPYTLMHRMPHKCLGNDQNCPSQNFTVWEMVINEMDRRDDPQFDERLTGCHFVDQCANIQSPEQFRAFLDNNLARHYRTNRAPLGLHFTSGYFETRRDFLREFVKWVRETALSGDYFFVTMQQVINWMEAPTELTAINNFQEWKGKCEVKGQPYCSLPNPCPKKVPRIFPNEEEMFLYTCMECPNTYPWLGDPHGNGFLDIPDF
ACC share of the total CaCO3 ([1]; 10 mM CaCl2, 10 mM Na2CO3, ~10 μg/ml protein, estimated): at least 50% | Raman spectroscopy (RS) of the CaCO3 precipitate ([1]; after precipitation and drying, broad peak about 1080 cm^-1 indicates ACC): distinct spectra of ACC | form of calcium carbonate precipitated in the presence of the additive ([1]; SEM): amorphous CaCO3; also recorded: amorphous form (ACC) | CaCO3 deposits characterized by polarized microscope ([1]; precipitation in the presence of GAP65, confirmed by Raman spectroscopy): mixture of calcite, vaterite, and ACC | Raman spectra (around the 1085 peak) compared with calcite ([4]; 6.5-month old ACC, room temperature): mixture seemingly comprising ACC and vaterite | nanosphere size of ACC ([4]; SEM 40 days after the precipitation): 50-500 nm | time the ACC remained stable (amorphous state kept) ([4]; room temperature, Raman spectra): at least 1 months
